Experiment [1] addresses T1, human VEGF165 (human, UniProt P15692-4 27-191).
T1 construct: the isoform is VEGF165; also called huVEGF; recombinant VEGF165
As to the kind of experiment: capture ELISA, Fab on anti-Fd, biotinylated VEGF165. The method, then:
(§1) Briefly, this capture ELISA involved coating individual wells of a 96-well Maxisorp Immunoplate with approximately 50 ng of a sheep anti-human Fd antibody (Biodesign International, ME) in a carbonate buffer at pH 8.5 overnight at 4° C. The next day, the plate was blocked with 3% BSA in PBS buffer for 1 hour at room temperature. Fab supernatant was then added to the plate and incubated at room temperature for 1 hour. After washing, the biotinylated VEGF165 protein was added to the well and the mixture was incubated for 1.5 hours at room temperature. This was followed by incubation with neutravidin-horseradish peroxydase (HRP) conjugate (Pierce, Ill.) for approximately 40 minutes at room temperature. HRP activity was detected with tetra-methyl-benzidine (TMB) substrate and the reaction quenched with 0.2 M H2SO4. Plates were read at 450 nm.
(§2) The Fab concentration was determined by comparing the ELISA signals with the signals generated by the reference Fab.
(ELISA stands for enzyme-linked immunosorbent assay.)

Experiment [2] deals with T1, human VEGF165. As to the kind of experiment: KinExA, IgG in solution, huVEGF165-coated beads. The procedure:
Coated beads were then separated (spin) from unreacted huVEGF protein solution, and blocked with 1M Tris, pH 8, containing BSA at 10 mg/mL), for approximately 15 minutes at room temperature. After this, the bead slurry was spun to remove the blocking solution, and then the block step was repeated for approximately 2 hours using fresh block buffer, and stored at 4° C. until used. Prior to use, the huVEGF-coated beads were transferred to a bead vial, resuspended in approximately 27 mLs of instrument buffer (10 mM HEPES+300 mM NaCl+5 mM CaCl₂+0.05% P20+0.02% NaN₃, pH8), and affixed to the KinExA instrument. […] These concentrations of mAbs were chosen to allow each KD measurement to be made under both receptor- and KD-controlled conditions, leading to more rigorous estimations of reagent activity and affinity, respectively. […] Two-fold serial dilutions of huVEGF protein were then titrated across 9 of the tubes in each mAb series, followed by two additional 10-fold-dilutions, leaving one tube as the mAb-only, “zero” control. […] Based on theory curve simulations available through the vendor software (Sapidyne Instruments, Boise, Idaho), the mixtures were incubated 1-4 days at room temperature to allow binding to reach equilibrium. At the end of this time, signal-testing experiments were conducted to determine the appropriate run conditions for each set of measurements.
A general note: Kinetic exclusion samples the free partner from a solution-phase mixture.

For the next experiment, the target named is T2, human VEGF121 (human, UniProt P15692-9 27-147).
T2 construct: the isoform is VEGF121
T2 sequence (looked up): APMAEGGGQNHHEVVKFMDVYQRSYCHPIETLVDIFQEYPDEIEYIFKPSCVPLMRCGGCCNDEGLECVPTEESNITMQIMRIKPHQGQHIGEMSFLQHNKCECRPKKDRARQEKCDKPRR
Description: ELISA on human VEGF121 (Example 8), OD 450 nm against antibody concentration, 4-parameter fit. The method, then:
(§3) EC50 values were determined using non-linear regression analysis (log dose response, 4-parameter fit curves) in GraphPad Prism, version 5.01 (San Diego, Calif.).

In experiment [3] the target is T3, mouse VEGF164 (mouse, UniProt Q00731-2 27-190).
T3 construct: also called mVEGF164; murine VEGF164
T3 sequence (looked up): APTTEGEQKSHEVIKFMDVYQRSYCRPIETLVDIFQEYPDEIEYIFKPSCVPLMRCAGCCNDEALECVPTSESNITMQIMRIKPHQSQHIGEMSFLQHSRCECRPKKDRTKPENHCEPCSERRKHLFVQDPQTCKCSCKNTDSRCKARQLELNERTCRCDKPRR
As to the kind of experiment: ELISA on murine VEGF164 (Example 7), O.D. 450 nm against antibody concentration, 4-parameter fit. The method, then:
as §3

For experiment [4], the target named is T1, human VEGF165. As to the kind of experiment: ELISA of Fabs at normalised concentrations on VEGF165 (Example 5), OD450 against Fab ug/ml. The method, then: as §1, §2
For experiment [5], the target named is T1, human VEGF165. As to the kind of experiment: VEGF165 ELISA of purified IgGs, OD450 against ug/ml.
Experiment [6] concerns the target T1, human VEGF165. Description: ELISA, coated VEGF, IgG, anti-human-Fc-HRP. The method, then: (§4) The 96-well microtiter plates (Corning) were coated with 50 μl/well of human and mouse VEGF165 or VEGF121 at a concentration of 5 μg/ml in PBS at 4° C. overnight. After being washed three times with PBS containing 0.1% Tween-20 (PBST), the wells were blocked with blocking buffer (4% skimmed milk in PBS). After 1 h incubation at room temperature, the plates were washed with PBST and a 2-fold serial dilution of the antibodies (starting from 8 nM) in blocking buffer were added and incubated for 1 hour at room temperature. The antibody solution was removed by washing with PBST followed by 1 hour incubation at room temperature with a 1:3000 dilution of an anti-human-Fc-HRP antibody (Thermo Scientific) prepared in PBST. Binding was visualized with the addition of 50 μL of SureBlue Reserve TMB substrate (KPL) for 5 minutes at room temperature and the reaction was stopped by adding 50 μL of TMB Stop Solution (KPL). The absorbance at 450 nm was measured using a microtiter plate reader. The data were analyzed using Prism 5 software (GraphPad).

Experiment [7] concerns the target T3, mouse VEGF164. Description: ELISA, coated VEGF, IgG, anti-human-Fc-HRP. The procedure:
as §4

Where “and” joins values, the source holds several entries; their conditions need not be identical. Equal entries are not always repeated.

B1: D04 Fab (Fab, V domains shown)
VH: EVQLLESGGGLVQPGGSLRLSCAASGFTFSWYEMYWVRQAPGKGLEWVSSISPSGGWTMYADSVKGRFTISRDNSKNTLYLQMNSLRAEDTAVYYCATPLYSSDGLSAGDIWGQGTMVTVSS
VL: EIVLTQSPATLSLSPGERATLSCRASQSVHSSYLAWYQQKPGQAPRLLIYGASSRATGIPDRFSGSGSGTDFTLTISRLEPEDFAVYYCQQSYSTPSFGQGTRLEIT
notes: Point mutant of M4 tested as Fab; Fab constant parts not specified
With B1, the “fold improvement in EC50 compared to germline E06 as Fabs” value (from here on “fold improvement in EC50”) with human VEGF165 [1] was > 10 fold.

B2: J05 IgG (antibody, V domains shown)
VH: EVQLLESGGGLVQPGGSLRLSCAASGFTFSWYEMYWVRQAPGKGLEWVSSISPSGGWTMYADSVKGRFTISRDNSKNTLYLQMNSLRAEDTAVYYCATPLYSSDGLSAGDIWGQGTMVTVSS
VL: EIVLTQSPATLSLSPGERATLSCRASQSVSSSYLAWYQQKPGQAPRLLIYGASSRATGIPDRFSGSGSGTDFTLTISRLEPEDFAVYYCQQSYRTPSFGQGTRLEITR
Take B2: in the experiment with human VEGF165 [2], the “FoldΔ KD vs. EO6-wt” value was 11 fold and the Kd amounted to 0.22 nM. In the experiment with human VEGF121, this molecule came in with an EC50 of 4.97 nM. The molecule further returned an EC50 with mouse VEGF164 [3] of 0.046 nM.

B3: E06 germline M4 Fab (Fab, V domains shown)
VH: EVQLLESGGGLVQPGGSLRLSCAASGFTFSWYEMYWVRQAPGKGLEWVSSISPSGGWTMYADSVKGRFTISRDNSKNTLYLQMNSLRAEDTAVYYCATPLYSSDGLSAGDIWGQGTMVTVSS
VL: EIVLTQSPATLSLSPGERATLSCRASQSVSSSYLAWYQQKPGQAPRLLIYGASSRATGIPDRFSGSGSGTDFTLTISRLEPEDFAVYYCQQSYSTPSFGQGTRLEIT
notes: Fab; D1E/Q3V/M4L/T86V in the VL against E06; Fab constant parts not specified; also called germline clone M4; germline E06
As for B3, the binding result with human VEGF165 [4] was “binds”.

B4: J05 Fab (Fab, V domains shown)
VH: EVQLLESGGGLVQPGGSLRLSCAASGFTFSWYEMYWVRQAPGKGLEWVSSISPSGGWTMYADSVKGRFTISRDNSKNTLYLQMNSLRAEDTAVYYCATPLYSSDGLSAGDIWGQGTMVTVSS
VL: EIVLTQSPATLSLSPGERATLSCRASQSVSSSYLAWYQQKPGQAPRLLIYGASSRATGIPDRFSGSGSGTDFTLTISRLEPEDFAVYYCQQSYRTPSFGQGTRLEIT
notes: Point mutant (VL S94R) of M4 tested as Fab; Fab constant parts not specified; also called point mutant J05
As for B4, in the experiment with human VEGF165 [1], the “fold improvement in EC50” value was > 10 fold and the “fold improvement of binding over E06” value is ~25 fold.

B5: H1DR IgG (antibody, V domains shown)
VH: EVQLLESGGGLVQPGGSLRLSCAASGFTFSWYEMYWVRQAPGKGLEWVSSISPSGGWTMYADSVKGRFTISRDNSKNTLYLQMNSLRAEDTAVYYCATPLYSSDGLSAGDIWGQGTMVTVSS
VL: EIVLTQSPATLSLSPGERATLSCRASQSVHSSYLAWYQQKPGQAPRLLIYGASSRATGIPDRFSGSGSGTDFTLTISRLEPEDFAVYYCQQDYRTPSFGQGTRLEITR
As to B5, the “EC50 (read off the curve)” value with human VEGF165 [5] was ~0.1 µg/mL. In addition, the EC50 with human VEGF121 worked out at 0.017 nM; with mouse VEGF164 [3], 0.043 nM.

B6: I20 Fab (Fab, V domains shown)
VH: EVQLLESGGGLVQPGGSLRLSCAASGFTFSWYEMYWVRQAPGKGLEWVSSISPSGGWTMYADSVKGRFTISRDNSKNTLYLQMNSLRAEDTAVYYCATPLYSSDGLSAGDIWGQGTMVTVSS
VL: EIVLTQSPATLSLSPGERATLSCRASQSVSSSYLAWYQQKPGQAPRLLIYGASSRATGIPDRFSGSGSGTDFTLTISRLEPEDFAVYYCQQDYSTPSFGQGTRLEIT
notes: as for B1
Consider B6, for which the “fold improvement in EC50” value in the experiment with human VEGF165 [1] was > 10 fold.

B7: E06 full length IgG (antibody, V domains shown)
VH: EVQLLESGGGLVQPGGSLRLSCAASGFTFSWYEMYWVRQAPGKGLEWVSSISPSGGWTMYADSVKGRFTISRDNSKNTLYLQMNSLRAEDTAVYYCATPLYSSDGLSAGDIWGQGTMVTVSS
VL: DIQMTQSPATLSLSPGERATLSCRASQSVSSSYLAWYQQKPGQAPRLLIYGASSRATGIPDRFSGSGSGTDFTLTISRLEPEDFATYYCQQSYSTPSFGQGTRLEITR
notes: also called antibody E06; Wt (E06)
Regarding B7, the “EC50 (read off the curve)” value with human VEGF165 [5] is ~0.07 µg/mL and ~0.06 µg/mL. Moreover, in the experiment with human VEGF165 [2], the Kd is 2.52 nM. Moreover, the EC50 in the experiment with human VEGF165 [6] was determined as 0.048 nM; in the experiment with mouse VEGF164 [7] it was 0.049 nM; with mouse VEGF164 [3], 0.03 nM.

In general, Kd refers to the free concentration of one partner at which half of the binding sites on the other are occupied at equilibrium, for simple one-to-one binding. A high value points to a looser complex. The term EC50 denotes the concentration needed to bring the measured effect to its halfway point. For orientation: EC50 (read off the curve) means the concentration at which the effect is half-maximal.
